Data reported in publication PMC6713228 (2018).

Columns and labels:
CD20 (Homo sapiens) = CD20 (Homo sapiens) (UniProt P11836); settings: cited from earlier work
CD20 = target: T1, CD20 (Homo sapiens, UniProt P11836)
T1 chain: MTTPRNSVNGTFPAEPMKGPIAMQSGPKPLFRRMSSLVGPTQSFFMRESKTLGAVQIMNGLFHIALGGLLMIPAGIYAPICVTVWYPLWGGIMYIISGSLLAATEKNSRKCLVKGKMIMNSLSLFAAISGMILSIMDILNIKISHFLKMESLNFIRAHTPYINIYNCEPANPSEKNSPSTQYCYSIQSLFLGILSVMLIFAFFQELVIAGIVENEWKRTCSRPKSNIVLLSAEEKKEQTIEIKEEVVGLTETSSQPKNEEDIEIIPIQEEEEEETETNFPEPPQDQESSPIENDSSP

For rituximab, the Kd (CD20 (Homo sapiens)) is listed as 4.96 nM.

B1: rituximab (antibody, V domains shown)
VH: QVQLQQPGAELVKPGASVKMSCKASGYTFTSYNMHWVKQTPGRGLEWIGAIYPGNGDTSYNQKFKGKATLTADKSSSTAYMQLSSLTSEDSAVYYCARSTYYGGDWYFNVWGAGTTVTVSA
VL: QIVLSQSPAILSASPGEKVTMTCRASSSVSYIHWFQQKPGSSPKPWIYATSNLASGVPVRFSGSGSGTSYSLTISRVEAEDAATYYCQQWTSNPPTFGGGTKLEIK
modifications: FITC-labeled rituximab
Molecule B1 has a Kd (CD20) of 4.82 nM.
